B1: Receptor-type tyrosine-protein phosphatase eta (Homo sapiens), Q12913 (parent)
chain: MKPAAREARLPPRSPGLRWALPLLLLLLRLGQILCAGGTPSPIPDPSVATVATGENGITQISSTAESFHKQNGTGTPQVETNTSEDGESSGANDSLRTPEQGSNGTDGASQKTPSSTGPSPVFDIKAVSISPTNVILTWKSNDTAASEYKYVVKHKMENEKTITVVHQPWCNITGLRPATSYVFSITPGIGNETWGDPRVIKVITEPIPVSDLRVALTGVRKAALSWSNGNGTASCRVLLESIGSHEELTQDSRLQVNISGLKPGVQYNINPYLLQSNKTKGDPLGTEGGLDASNTERSRAGSPTAPVHDESLVGPVDPSSGQQSRDTEVLLVGLEPGTRYNATVYSQAANGTEGQPQAIEFRTNAIQVFDVTAVNISATSLTLIWKVSDNESSSNYTYKIHVAGETDSSNLNVSEPRAVIPGLRSSTFYNITVCPVLGDIEGTPGFLQVHTPPVPVSDFRVTVVSTTEIGLAWSSHDAESFQMHITQEGAGNSRVEITTNQSIIIGGLFPGTKYCFEIVPKGPNGTEGASRTVCNRTVPSAVFDIHVVYVTTTEMWLDWKSPDGASEYVYHLVIESKHGSNHTSTYDKAITLQGLIPGTLYNITISPEVDHVWGDPNSTAQYTRPSNVSNIDVSTNTTAATLSWQNFDDASPTYSYCLLIEKAGNSSNATQVVTDIGITDATVTELIPGSSYTVEIFAQVGDGIKSLEPGRKSFCTDPASMASFDCEVVPKEPALVLKWTCPPGANAGFELEVSSGAWNNATHLESCSSENGTEYRTEVTYLNFSTSYNISITTVSCGKMAAPTRNTCTTGITDPPPPDGSPNITSVSHNSVKVKFSGFEASHGPIKAYAVILTTGEAGHPSADVLKYTYEDFKKGASDTYVTYLIRTEEKGRSQSLSEVLKYEIDVGNESTTLGYYNGKLEPLGSYRACVAGFTNITFHPQNKGLIDGAESYVSFSRYSDAVSLPQDPGVICGAVFGCIFGALVIVTVGGFIFWRKKRKDAKNNEVSFSQIKPKKSKLIRVENFEAYFKKQQADSNCGFAEEYEDLKLVGISQPKYAAELAENRGKNRYNNVLPYDISRVKLSVQTHSTDDYINANYMPGYHSKKDFIATQGPLPNTLKDFWRMVWEKNVYAIIMLTKCVEQGRTKCEEYWPSKQAQDYGDITVAMTSEIVLPEWTIRDFTVKNIQTSESHPLRQFHFTSWPDHGVPDTTDLLINFRYLVRDYMKQSPPESPILVHCSAGVGRTGTFIAIDRLIYQIENENTVDVYGIVYDLRMHRPLMVQTEDQYVFLNQCVLDIVRSQKDSKVDLIYQNTTAMTIYENLAPVTTFGKTNGYIA

Variants of: B1
Conditions: with flt3_human FLT3, P36888
flt3_human FLT3, P36888, sequence (P36888 whole entry): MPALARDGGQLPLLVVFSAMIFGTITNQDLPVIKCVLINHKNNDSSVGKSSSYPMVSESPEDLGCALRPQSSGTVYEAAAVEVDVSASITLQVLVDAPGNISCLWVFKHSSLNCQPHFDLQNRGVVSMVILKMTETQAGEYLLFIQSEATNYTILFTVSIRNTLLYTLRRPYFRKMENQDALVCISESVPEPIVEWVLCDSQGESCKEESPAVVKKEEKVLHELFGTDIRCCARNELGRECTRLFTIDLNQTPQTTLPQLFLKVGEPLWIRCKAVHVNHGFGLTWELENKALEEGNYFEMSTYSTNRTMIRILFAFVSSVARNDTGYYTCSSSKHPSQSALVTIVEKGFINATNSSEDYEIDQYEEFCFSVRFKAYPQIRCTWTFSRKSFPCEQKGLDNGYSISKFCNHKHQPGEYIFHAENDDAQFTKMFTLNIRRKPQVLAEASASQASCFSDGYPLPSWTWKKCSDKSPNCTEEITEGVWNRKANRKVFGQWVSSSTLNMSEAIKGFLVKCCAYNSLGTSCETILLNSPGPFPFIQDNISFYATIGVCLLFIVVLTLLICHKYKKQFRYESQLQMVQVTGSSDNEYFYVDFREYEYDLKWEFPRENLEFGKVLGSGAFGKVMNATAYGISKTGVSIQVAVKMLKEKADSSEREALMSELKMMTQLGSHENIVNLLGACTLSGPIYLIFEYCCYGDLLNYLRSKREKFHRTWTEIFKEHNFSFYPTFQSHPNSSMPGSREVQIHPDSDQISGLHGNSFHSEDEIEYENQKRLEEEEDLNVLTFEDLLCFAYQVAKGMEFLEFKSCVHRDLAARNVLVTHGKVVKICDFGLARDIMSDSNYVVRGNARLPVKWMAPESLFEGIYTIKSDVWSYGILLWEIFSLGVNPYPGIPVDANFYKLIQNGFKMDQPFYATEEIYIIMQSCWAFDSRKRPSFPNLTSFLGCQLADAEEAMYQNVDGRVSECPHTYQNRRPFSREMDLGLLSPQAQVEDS

| effect of a mutation on the interaction | Variant |
| --- | --- |
| increasing interaction strength | C1239S |

From IntAct's records for PubMed 23650535
